The numbers were not newly measured in publication PMC2797979 (Diabetes Care, 2009), which cites them from elsewhere.

For this data set the following is noted: long-acting insulin analogs.

In the case of detemir, the Elimination half-life was 24 h.
